The source of these data is patent publication US20180216138.

The target in this data set is ferredoxin (CA_C0303) from Clostridium acetobutylicum.

B1: Ferredoxin-NADP+ reductase from Clostridium acetobutylicum encoded by CA_C0764 (protein)
chain: MDNPNLLSEEANRCLLCKNPRCKANCPINTPIPEIISLYKEGKIMEAGEILFNNNPLSVICSLVCIHEDQCKGNCVRGIKSEPIKFHEIEEEISEKYLKEAKLKNVQKDKDRIAIVGGGPAGITVAFVLANKGYNVTIFEAHDKIGGVLRYGIPEYRLTKKLVDKLEERLIEVGVKIRPNTVIGPVISLDRLLEDSYKAVFIGTGVWNPKTLDVKGETLGNVHFAIDYLKSPESYRLGKKVAVIGAGNVAMDAARTAKRNGAEVTILYRKSFNEMPASKQEIRETKEDGVEFKLFRAPIEITEEGIKVAFTENVTDAEGKIRTKIIEGKEEFFECDSVVVAVSQAPKDNIVSNTTGLDTKWGLIVTDEKGNTTKKGTFACGDVVTGAKTVVEAAAQAKVVAETIDEYCKNN
Protein B1 returned a Ferredoxin NADP+ reductase specific activity of 9.5 U/mg protein.
